Test results: paper PMC10359924, “Identification and characterisation of anti-IL-13 inhibitory single domain antibodies provides new insights into receptor selectivity and attractive opportunities for drug discovery” (Frontiers in Immunology, 2023)
Residue numbers refer to the chain shown, from its start.

B1: VHH238 (VHH)
VHH: EVQLVESGGGLVQPGGSLRLSCAASGFTISNHDMHWVRQAPGKGLEWVSSINPGGTYTEYRDSVKGRFTISRDNAKNTLYLQMNDLKPQDTAVYYCNAWGKGVEYDYWGQGTQVTVSS
notes: From a naive llama VHH phage library (UCB Biopharma); cloned into pET21a(+); not shown: His6, N-terminal, kept
B2: VHH209 (VHH)
VHH: EVQLVESGGGLVQPGGSLRLSCAASGFTFSNYAMSWVRQAPGKGLEWVSSIESGSSRTIYRDSVKGRFTISRDNAKNTVYLQMNSLKPEDTAVYYCNADTYVPKDGSGWSPEYDVYGQGTQVTVSS
notes: as for B1
B3: VHH235 (VHH)
VHH: EVQLVESGGGLVQPGGSLRLSCAASGFNFGNSAMSWFRQAPGKGLEWVSSINSGGGGSVYRASVKGRFTISRDDAKNTLFLQMNSLKPEDTAVYYCNADTYVPKDGGGWSPEYDIWGQGTLVTVSS
notes: as for B1
B4: VHH201 (VHH)
VHH: EVQLVESGGGLVQAGESLTLSCAASGNSFDDYAVGWFRQAPGKEREGVGCINCETGVTTYYADSVKGRFTIHRDNAKNTVYLQMNSLKLEDTATYYCAADRWGTRLVAATYDYWGQGTQVTVSS
notes: as for B1
B5: VHH228 (VHH)
VHH: B4 VHH with E1Q, A14P, E16G, A24V, N27F, S28R, V34I
notes: as for B1
B6: VHH251 (VHH)
VHH: EVQLVESGGGLVQPGGSLRLSCQASGFAFSSSTMYWVRQTPGKGLEWVSSITRGGTNTYYRDSVKGRFTISRDNNKNALYLQMNSLKPEDTAVYYCNADTYVPKDGGGWSPEYDIWGQGTLVTVSS
notes: as for B1
B7: VHH264 (VHH)
VHH: B6 VHH with N74D, N75A, A78T, E112D, L121Q
notes: as for B1
B8: VHH227 (VHH)
VHH: EVQLVESGGNLVQPGGSLRLSCAASGFTFSKYAMNWVRQAPGKGLEWVSAINSFAGSTSYADSVKGRFTISRDNAKNTLYLQMNSLKPEDTAVYYCKYRGYYGQGTQVTVSS
notes: as for B1
B9: VHH214 (VHH)
VHH: EVQLVESGGGLVQAGGSLRLSCAASGLLFDINDMGWYRQAPGKQREMVATIRSGGSTVYAEAVKGRFTISRDDAKHSVHLQMNNLKPEDSAVYYCHRTYNSYADWGQGTQVTVSS
notes: as for B1
B10: VHH204 (VHH)
VHH: EVQLVESGGGLVQAGGSLRLSCVASGRTISSYAMTWVRHAPGKGLEWVSTISTDASNTYYADSVKGRFTVSRDNAKNTVYLQMNSLKPEDTALYYCARVRLDGWEYDYWGQGTQVTVSS
notes: From a naive llama VHH phage library (UCB Biopharma); cloned into pET21a(+); also called VH204; not shown: His6, N-terminal, kept
B11: VHH281 (VHH)
VHH: EVQLVESGGGLVQPGGSLRLSCAASGFTFGSYDMSWVRQAPGKGPEWVSYIDSGGRTTYYADSVKGRFTISRDNARNTVYLQMNSLKPEDTAVYYCAREAHGSGWSAANYYGMDYWGEGTQVTVSS
notes: as for B1
B12: VHH210 (VHH)
VHH: EVQLVESGGGLVQPGGSLRLSCAASGFTFSSSWMYWVRQVPGKGLEWLSDVDPGGGNTYYADSVKGRFTISRDNAKKVLYLQMNSLKPEDTAVYYCNADTYVPKDGGGWSPEYDIWGQGTQVTVSS
notes: as for B1
B13: VHH245 (VHH)
VHH: EVQLVESGGDLVQPGGSLRLSCSASGFTFDDYAMNWIRQAPGKGLEWVSSISWNGDSTYYAESMKGRFTISRDNAKNTLYLQMNSLQSEDTAVYYCNAQEYVGAHVYDYWGQGTQVTVSS
notes: as for B1
B14: VHH234 (VHH)
VHH: EVQLVESGGGLVQPGGSLRLSCAASGFTFSSYAMNWVRQAPGKGLEWVSAINSGGGTTDYADSVKGRFTISRDNAKNTLYLQMNSLKPEDTAVYYCARGKLGNGLEWGQGTQVTVSS
notes: as for B1
B15: VHH229 (VHH)
VHH: EVQLVESGGGLVQPGGSLRLSCAASGFTFRRYDMSWVRQVPGKGLEWVSDINSGGDSTNYADSVKGRFTISRDNNKNVLYLQMNSLKPEDTAVYYCNADTYVPKDGGGWSPEYDIWGQGTQVTVSS
notes: as for B1

How the values were obtained:
[1] = target: human Interleukin-13 (IL-13) (1-113) (Homo sapiens); assay: cell-based or functional assay
[2] = target: T1, human Interleukin-13 (IL-13) (1-113) (Homo sapiens); assay: BLI; Octet QKe; N-terminally His-tagged VHH loaded on Ni-NTA biosensors (100 nM), titrated with untagged IL-13; 300 s association, 300 s dissociation; 25°C; HBS-EP+ (10 mM HEPES pH 7.4, 150 mM NaCl, 3 mM EDTA, 0.005% Tween-20); steady-state curves, one-site binding model; settings: both partners purified
T1 construct: source: 15N or 15N/13C labelled for NMR
T1 sequence (chain, as listed by the source): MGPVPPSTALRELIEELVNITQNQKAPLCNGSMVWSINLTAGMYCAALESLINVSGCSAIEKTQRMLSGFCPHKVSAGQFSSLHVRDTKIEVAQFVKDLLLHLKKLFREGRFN

Binder	IC50 of inhibition of IL-13 signalling (STAT6/SEAP reporter, HEK-Blue IL-4/IL-13 cells); blocks IL-13 signalling through IL-13Rα1 and IL-4Rα [1] [µM]	Kd [2] [µM]
B1	1.7	0.2
B2	67.8	2.2
B3	74.3	3.6
B4	37.7	0.9
B5	56	0.9
B6	6.9	2.2
B7	14.5	3.9
B8	63.5	5.5
B9	154	4.8
B10	26.2	2.6
B11	34.3	0.4
B12	0.2	0.04
B13	3.7	0.2
B14	49.6	4.1
B15	11.4	0.2
